Tests used:
HLA-A*02:50 = assay: IEDB peptide-MHC binding, purified MHC/competitive/fluorescence; filed as Kd, often an IC50 or EC50 that approximates it; ≥ and ≤ were set here for values at or beyond the usual limits of such assays
HLA-A*02:01 [1] = assay: IEDB peptide-MHC binding, purified MHC/direct/fluorescence; filed as Kd, often an IC50 or EC50 that approximates it; ≥ and ≤ were set here for values at or beyond the usual limits of such assays
HLA-A*69:01 [2] = assay: as above
HLA-A*26:01 [3] = assay: as above
HLA-A*24:03 = assay: as above
HLA-B*27:05 = assay: as above
HLA-B*07:02 = assay: as above; conditions: source organism: Vibrio cholerae
HLA-B*40:01 = assay: as above
HLA-B*15:01 [4] = assay: as above
HLA-A*03:01 = assay: as above
HLA-B*08:01 [5] = assay: as above; conditions: source organism: Vibrio cholerae
HLA-B*58:01 = assay: as above
HLA-A*31:01 = assay: as above
HLA-A*11:01 = assay: as above
HLA-A*01:01 = assay: as above
HLA-B*44:02 = assay: as above; conditions: source organism: Vibrio cholerae
HLA-C*14:02 = assay: as above; conditions: source organism: Vibrio vulnificus YJ016
HLA-C*04:01 = assay: as above
HLA-A*30:01 [6] = assay: IEDB peptide-MHC binding, purified MHC/competitive/fluorescence; filed as Kd, often an IC50 or EC50 that approximates it; ≥ and ≤ were set here for values at or beyond the usual limits of such assays; conditions: source organism: Human immunodeficiency virus 1
HLA-C*08:02 = assay: IEDB peptide-MHC binding, purified MHC/direct/fluorescence; filed as Kd, often an IC50 or EC50 that approximates it; ≥ and ≤ were set here for values at or beyond the usual limits of such assays
HLA-C*03:03 = assay: as above
HLA-C*12:03 = assay: as above; conditions: source organism: Mycobacterium tuberculosis variant bovis BCG str. Pasteur 1173P2
HLA-B*08:01 [7] = assay: IEDB peptide-MHC binding, purified MHC/competitive/fluorescence; filed as Kd, often an IC50 or EC50 that approximates it; ≥ and ≤ were set here for values at or beyond the usual limits of such assays; conditions: source organism: Influenza A virus (A/Harbin/1/1988(H1N2))
HLA-A*02:01 [8] = assay: as above
HLA-B*57:01 = assay: as above; conditions: source organism: Zaire ebolavirus
HLA-A*69:01 [9] = assay: as above
HLA-A*26:01 [10] = assay: as above
HLA-B*15:01 [11] = assay: as above; conditions: source organism: Zaire ebolavirus
HLA-B*51:01 = assay: as above
HLA-B*46:01 = assay: as above; conditions: source organism: Zaire ebolavirus
HLA-B*39:01 = assay: as above
HLA-B*18:01 = assay: as above
HLA-B*27:03 = assay: as above
HLA-A*29:02 = assay: IEDB peptide-MHC binding, purified MHC/direct/fluorescence; filed as Kd, often an IC50 or EC50 that approximates it; ≥ and ≤ were set here for values at or beyond the usual limits of such assays; conditions: source organism: Zaire ebolavirus
HLA-A*02:11 = assay: as above
HLA-A*02:03 = assay: as above
HLA-A*68:02 = assay: as above
HLA-A*02:19 = assay: as above
HLA-A*02:16 = assay: as above
HLA-A*23:01 = assay: as above
HLA-A*02:12 = assay: as above
HLA-C*05:01 = assay: as above; conditions: source organism: Brucella abortus S19
HLA-A*30:01 [12] = assay: as above; conditions: source organism: Kurkino virus
[13] = source organism: Vibrio cholerae
[14] = source organism: Mycobacterium tuberculosis variant bovis BCG str. Pasteur 1173P2
[15] = source organism: Haemophilus influenzae
[16] = source organism: Zaire ebolavirus
[17] = source organism: Cryptosporidium parvum Iowa II
[18] = source organism: Bacillus anthracis str. A0193
[19] = source organism: Brucella abortus 2308
[20] = source organism: Orthohantavirus dobravaense

ALYWALMES gave a Kd (HLA-A*02:50; source organism: Vibrio cholerae 2740-80) of 0.0002 µM, a Kd (HLA-A*02:01 [1]; [13]) of 0.021 µM and a Kd (HLA-A*69:01 [2]; [13]) of no less than 20 µM. It also gave a Kd (HLA-A*26:01 [3]; [13]) of no less than 20 µM, a Kd (HLA-A*24:03; [13]) of no less than 20 µM and a Kd (HLA-B*27:05; [13]) of no less than 20 µM. It also gave a Kd (HLA-B*07:02) of no less than 20 µM, a Kd (HLA-B*40:01; [13]) of no less than 20 µM and a Kd (HLA-B*15:01 [4]; [13]) of no less than 20 µM. It also gave a Kd (HLA-A*03:01; [13]) of no less than 20 µM, a Kd (HLA-B*08:01 [5]) of no less than 20 µM and a Kd (HLA-B*58:01; [13]) of no less than 20 µM. For the same sequence, the Kd (HLA-A*31:01; [13]) was no less than 20 µM, the Kd (HLA-A*11:01; [13]) was no less than 20 µM and the Kd (HLA-A*01:01; [13]) was no less than 20 µM. The Kd (HLA-B*44:02) was no less than 20 µM.

For AYFLEAQEM, the Kd (HLA-C*14:02) was no more than 0.001 µM, the Kd (HLA-A*24:03; source organism: Vibrio vulnificus) was 0.0036 µM and the Kd (HLA-C*04:01; source organism: Vibrio vulnificus YJ016) was no less than 20 µM.

With EELRSLYNTV the Kd (HLA-A*30:01 [6]) was no less than 20 µM.

FLADYGWRL showed a Kd (HLA-A*69:01 [2]; source organism: Mycobacterium tuberculosis) of 0.663 µM, a Kd (HLA-C*08:02; [14]) of 0.057 µM and a Kd (HLA-C*03:03; [14]) of 0.026 µM. It also gave a Kd (HLA-C*12:03) of 0.413 µM.

FLADYRGKT was tested, and the Kd (HLA-A*02:50; source organism: Haemophilus influenzae R2846) was 0.0019 µM, the Kd (HLA-A*02:01 [1]; [15]) was 1.36 µM and the Kd (HLA-A*69:01 [2]; [15]) was no less than 20 µM. It also gave a Kd (HLA-A*26:01 [3]; [15]) of no less than 20 µM, a Kd (HLA-B*27:05; [15]) of no less than 20 µM and a Kd (HLA-B*40:01; [15]) of no less than 20 µM. For the same sequence, the Kd (HLA-B*15:01 [4]; [15]) was no less than 20 µM, the Kd (HLA-A*03:01; [15]) was no less than 20 µM and the Kd (HLA-B*58:01; [15]) was no less than 20 µM. The Kd (HLA-A*31:01; [15]) was no less than 20 µM, the Kd (HLA-A*11:01; [15]) was no less than 20 µM and the Kd (HLA-A*01:01; [15]) was no less than 20 µM.

For IAPWYAFAL, the Kd (HLA-B*08:01 [7]) was 7.56 µM and the Kd (HLA-C*08:02; source organism: Influenza A virus (A/Harbin/1/1988(H1N2))) was 3.34 µM.

Sequence LTDRELLLL has a Kd (HLA-A*02:01 [8]; [16]) of no less than 20 µM, a Kd (HLA-B*57:01) of no less than 20 µM and a Kd (HLA-A*69:01 [9]; [16]) of no less than 20 µM. The Kd (HLA-A*26:01 [10]; [16]) was no less than 20 µM, the Kd (HLA-B*15:01 [11]) was no less than 20 µM and the Kd (HLA-B*51:01; [16]) was no less than 20 µM. It also gave a Kd (HLA-B*46:01) of no less than 20 µM, a Kd (HLA-B*39:01; [16]) of no less than 20 µM and a Kd (HLA-B*18:01; [16]) of no less than 20 µM. The Kd (HLA-B*27:03; [16]) was no less than 20 µM, the Kd (HLA-A*29:02) was no less than 20 µM and the Kd (HLA-A*02:11; [16]) was no less than 20 µM. It also gave a Kd (HLA-A*24:03; [16]) of no less than 20 µM, a Kd (HLA-A*03:01; [16]) of no less than 20 µM and a Kd (HLA-A*02:03; [16]) of no less than 20 µM. The Kd (HLA-A*68:02; [16]) was no less than 20 µM, the Kd (HLA-A*02:19; [16]) was no less than 20 µM and the Kd (HLA-A*02:16; [16]) was no less than 20 µM. It also gave a Kd (HLA-A*23:01; [16]) of no less than 20 µM, a Kd (HLA-A*01:01; source organism: Sudan ebolavirus - Uganda (2000)) of 0.255 µM and a Kd (HLA-A*02:12; [16]) of no less than 20 µM.

For MSQMPPHPY, the Kd (HLA-A*02:01 [8]; [17]) was no less than 20 µM, the Kd (HLA-A*69:01 [9]; [17]) was no less than 20 µM and the Kd (HLA-A*26:01 [10]; [17]) was no less than 20 µM. For the same sequence, the Kd (HLA-B*51:01; [17]) was no less than 20 µM, the Kd (HLA-B*39:01; [17]) was no less than 20 µM and the Kd (HLA-B*18:01; [17]) was no less than 20 µM. For the same sequence, the Kd (HLA-B*27:03; [17]) was no less than 20 µM, the Kd (HLA-A*02:11; [17]) was no less than 20 µM and the Kd (HLA-A*24:03; [17]) was no less than 20 µM. For the same sequence, the Kd (HLA-A*03:01; [17]) was no less than 20 µM, the Kd (HLA-A*02:03; [17]) was no less than 20 µM and the Kd (HLA-A*68:02; [17]) was no less than 20 µM. For the same sequence, the Kd (HLA-A*02:19; [17]) was no less than 20 µM, the Kd (HLA-A*02:16; [17]) was no less than 20 µM and the Kd (HLA-A*23:01; [17]) was no less than 20 µM. The Kd (HLA-A*11:01; [17]) was 0.377 µM and the Kd (HLA-A*02:12; [17]) was no less than 20 µM.

YAIYTLGEM was tested, and the Kd (HLA-C*03:03; [18]) was no more than 0.001 µM and the Kd (HLA-C*04:01; [18]) was no less than 20 µM.

YVDIIGLSV showed a Kd (HLA-A*02:50; source organism: Brucella abortus S19) of 0.0091 µM, a Kd (HLA-A*02:01 [1]; [19]) of 0.056 µM and a Kd (HLA-A*69:01 [2]; [19]) of 0.0085 µM. The Kd (HLA-C*05:01) was 0.002 µM and the Kd (HLA-A*02:12; source organism: Brucella suis 1330) was 0.005 µM.

Sequence YYTEDQGQF has a Kd (HLA-A*24:03; [20]) of 0.0014 µM, a Kd (HLA-A*30:01 [12]) of no less than 20 µM and a Kd (HLA-C*04:01; source organism: Kurkino virus) of no less than 20 µM. It also gave a Kd (HLA-A*23:01; [20]) of 0.0135 µM.
